Results from the supplement of paper PMC11246515.
± gives the standard deviation of the averaged measurements.

Assay: total protein half-life in vivo (active degradation + dilution); higher = more stable protein
[1] = E. coli NCM3722 delta-clpP delta-lon delta-hslV, growth: N-lim chemostat, doubling time 6 h
[2] = E. coli NCM3722 delta-hslV, growth: N-lim chemostat, doubling time 6 h
[3] = E. coli NCM3722 delta-lon, growth: N-lim chemostat, doubling time 6 h
[4] = wild type E. coli NCM3722, growth: C-lim chemostat, doubling time 6 h
[5] = wild type E. coli NCM3722, growth: C-lim chemostat, doubling time 12 h
[6] = wild type E. coli NCM3722, growth: N-lim chemostat, doubling time 12 h
[7] = wild type E. coli NCM3722, growth: P-lim chemostat, doubling time 12 h
[8] = E. coli NCM3722 delta-clpP, growth: N-lim chemostat, doubling time 6 h
[9] = E. coli NCM3722 delta-smpB, growth: N-lim chemostat, doubling time 6 h
[10] = wild type E. coli NCM3722, growth: C-lim chemostat, doubling time 3 h
[11] = wild type E. coli NCM3722, growth: N-lim chemostat, doubling time 6 h
[12] = wild type E. coli NCM3722, growth: P-lim chemostat, doubling time 6 h

Sequence | total protein half-life in vivo [1] [h] | total protein half-life in vivo [2] [h] | total protein half-life in vivo [3] [h] | total protein half-life in vivo [4] [h] | total protein half-life in vivo [5] [h] | total protein half-life in vivo [6] [h] | total protein half-life in vivo [7] [h] | total protein half-life in vivo [8] [h] | total protein half-life in vivo [9] [h] | total protein half-life in vivo [10] [h] | total protein half-life in vivo [11] [h] | total protein half-life in vivo [12] [h]
MIQYLNVFFYDIYPYICATVFFLGSWLRYDYGQYTWRASSSQMLDKRGMVIWSNLFHIGILGIFFGHLFGMLTPHWMYAWFLPVAAKQLMAMVLGGICGVLTLIGGAGLLWRRLTNQRVRATSTTPDIIIMSILLIQCLLGLSTIPFSAQYPDGSEMMKLVGWAQSIVTFRGGSSEMLNGVAFVFRLHLVLGMTIFLLFPFTRLVHVWSAPFEYFTRRYQIVRSRR [P0AF32] | 6.36 ± 0.3 | 7.27 ± 0.96 | 5.71 ± 0.33 | 6.54 | 11 | 10.7 ± 1.9 | 11.3 ± 1.8 | – | – | – | – | –
MIRFAVIGTNWITRQFVEAAHESGKYKLTAVYSRSLEQAQHFANDFSVEHLFTSLEAMAESDAIDAVYIASPNSLHFSQTQLFLSHKINVICEKPLASNLAEVDAAIACARENQVVLFEAFKTACLPNFHLLRQALPKVGKLRKVFFNYCQYSSRYQRYLDGENPNTFNPAFSNGSIMDIGFYCLASAVALFGEPKSVQATASLLASGVDAQGVVVMDYGDFSVTLQHSKVSDSVLASEIQGEAGSLVIEKLSECQKVCFVPRGSQMQDLTQPQHINTMLYEAELFATLVDEHLVDHPGLAVSRITAKLLTEIRRQTGVIFPADSVKL | 4.844 ± 0.015 | 4.29 ± 0.31 | 4.616 ± 0.03 | 5.28 ± 0.46 | 9.44 ± 1.5 | 6.53 ± 1.1 | 10.8 ± 0.27 | 4.33 ± 0.36 | 4.18 ± 0.54 | 2.56 ± 0.41 | 4.08 ± 0.11 | 6.55 ± 1
MIRISDAAQAHFAKLLANQEEGTQIRVFVINPGTPNAECGVSYCPPDAVEATDTALKFDLLTAYVDELSAPYLEDAEIDFVTDQLGSQLTLKAPNAKMRKVADDAPLMERVEYMLQSQINPQLAGHGGRVSLMEITEDGYAILQFGGGCNGCSMVDVTLKEGIEKQLLNEFPELKGVRDLTEHQRGEHSYY | 4.529 ± 0.0069 | 2.533 ± 0.019 | 2.97 ± 0.2 | 3.4 ± 0.13 | 5.07 ± 0.12 | 3.63 ± 0.19 | 6.09 ± 0.23 | 3.82 ± 0.32 | 2.54 ± 0.25 | 2.32 ± 0.16 | 2.55 ± 0.36 | 3.01 ± 0.56
MIRQVIQRISNPEASIESLQERRFWLQCERAYTWQPIYQTCGRLMAVELLTVVTHPLNPSQRLPPDRYFTEITVSHRMEVVKEQIDLLAQKADFFIEHGLLASVNIDGPTLIALRQQPKILRQIERLPWLRFELVEHIRLPKDSTFASMCEFGPLWLDDFGTGMANFSALSEVRYDYIKIARELFVMLRQSPEGRTLFSQLLHLMNRYCRGVIVEGVETPEEWRDVQNSPAFAAQGWFLSRPAPIETLNTAVLAL | – | – | – | – | – | – | – | – | – | 0.512 ± 0.23 | – | –
MIRTMLQGKLHRVKVTHADLHYEGSCAIDQDFLDAAGILENEAIDIWNVTNGKRFSTYAIAAERGSRIISVNGAAAHCASVGDIVIIASFVTMPDEEARTWRPNVAYFEGDNEMKRTAKAIPVQVA [P0A790] | 4.79 | 1.54 ± 0.23 | 6.3 | 3.1 | – | 2.2 | 4.54 ± 0.65 | – | 1.43 | 1.68 ± 0.15 | 2.24 | 2.12
MIRVACVGITVMDRIYYVEGLPTESGKYVARNYTEVGGGPAATAAVAAARLGAQVDFIGRVGDDDTGNSLLAELESWGVNTRYTKRYNQAKSSQSAIMVDTKGERIIINYPSPDLLPDAEWLEEIDFSQWDVVLADVRWHDGAKKAFTLARQAGVMTVLDGDITPQDISELVALSDHAAFSEPGLARLTGVKEMASALKQAQTLTNGHVYVTQGSAGCDWLENGGRQHQPAFKVDVVDTTGAGDVFHGALAVALATSGDLAESVRFASGVAALKCTRPGGRAGIPDCDQTRSFLSLFV | 6.62 ± 1.4 | – | – | 5.95 ± 1.4 | 7.92 ± 0.52 | – | – | – | – | 2.49 ± 0.19 | – | –
MISAFDIFKIGIGPSSSHTVGPMNAGKSFIDRLESSGLLTATSHIVVDLYGSLSLTGKGHATDVAIIMGLAGNSPQDVVIDEIPAFIELVTRSGRLPVASGAHIVDFPVAKNIIFHPEMLPRHENGMRITAWKGQEELLSKTYYSVGGGFIVEEEHFGLSHDVETSVPYDFHSAGELLKMCDYNGLSISGLMMHNELALRSKAEIDAGFARIWQVMHDGIERGMNTEGVLPGPLNVPRRAVALRRQLVSSDNISNDPMNVIDWINMYALAVSEENAAGGRVVTAPTNGACGIIPAVLAYYDKFRRPVNERSIARYFLAAGAIGALYKMNASISGAEVGCQGEIGVACSMAAAGLTELLGGSPAQVCNAAEIAMEHNLGLTCDPVAGQVQIPCIERNAINAVKAVNAARMAMRRTSAPRVSLDKVIETMYETGKDMNDKYRETSRGGLAIKVVCG | 4.67 | – | – | 2.13 | 2.34 | – | – | – | – | – | – | –
MISTVALFWALCVVCIVNMARYFSSLRALLVVLRNCDPLLYQYVDGGGFFTSHGQPNKQVRLVWYIYAQRYRDHHDDEFIRRCERVRRQFILTSALCGLVVVSLIALMIWH [P0A8S5] | 0.94 | – | – | > 8 | – | – | – | 0.778 | – | 0.797 | – | –
MITHNFNTLDLLTSPVWIVSPFEEQLIYANSAAKLLMQDLTFSQLRTGPYSVSSQKELPKYLSDLQNQHDIIEILTVQRKEEETALSCRLVLRKLTETEPVIIFEGIEAPATLGLKASRSANYQRKKQGFYARFFLTNSAPMLLIDPSRDGQIVDANLAALNFYGYNHETMCQKHTWEINMLGRRVMPIMHEISHLPGGHKPLNFVHKLADGSTRHVQTYAGPIEIYGDKLMLCIVHDITEQKRLEEQLEHAAHHDAMTGLLNRRQFYHITEPGQMQHLAIAQDYSLLLIDTDRFKHINDLYGHSKGDEVLCALARTLESCARKGDLVFRWGGEEFVLLLPRTPLDTALSLAETIRVSVAKVSISGLPRFTVSIGVAHHEGNESIDELFKRVDDALYRAKNDGRNRVLAA | 6.16 | – | – | 1.87 ± 0.062 | 1.42 ± 0.21 | – | – | 1.51 | – | 0.79 ± 0.18 | 1.31 | –
MITNYEATVVTTDDIVHEVNLEGKRIGYVIKTENKETPFTVVDIDGPSGNVKTLDEGVKKMCLVHIGKNLPAEKKAEFLATLIAMKLKGEI | – | – | – | 5.13 | 10.3 | – | – | – | – | – | – | –
MITRDFLMNADCKTAFGAIEESLLWSAEQRAASLAATLACRPDEGPVWIFGYGSLMWNPALEFTESCTGTLVGWHRAFCLRLTAGRGTAHQPGRMLALKEGGRTTGVAYRLPEETLEQELTLLWKREMITGCYLPTWCQLDLDDGRTVNAIVFIMDPRHPEYESDTRAQVIAPLIAAASGPLGTNAQYLFSLEQELIKLGMQDDGLNDLLVSVKKLLAENFPDGVLRPGFA | 5.67 ± 0.14 | – | – | – | – | – | – | – | – | – | – | –
MITTRTARQCGQADYGWLQARYTFSFGHYFDPKLLGYASLRVLNQEVLAPGAAFQPRTYPKVDILNVILDGEAEYRDSEGNHVQASAGEALLLSTQPGVSYSEHNLSKDKPLTRMQLWLDACPQRENPLIQKLALNMGKQQLIASPEGAMGSLQLRQQVWLHHIVLDKGESANFQLHGPRAYLQSIHGKFHALTHHEEKAALTCGDGAFIRDEANITLVADSPLRALLIDLPV | 5.48 ± 0.071 | 5.31 ± 0.28 | 4.33 ± 0.52 | 4.71 | 9.966 ± 0.01 | 8.48 ± 1.3 | 9.05 ± 0.27 | 4.42 ± 0.18 | 4.37 ± 0.26 | – | 6.13 | 4.66 ± 0.36
